Reference: the supplement of paper PMC7125110
± gives the standard error. For some assays here: Variants at the floor of the assay were thinned out.

B1: glmS ribozyme (parent)
chain: AUAAAAGCGCCAGAACUACAGAAAUGUAGUUGACGAGGAGGAGGUUUAUCGAAUUUUCGGCGGAUGCCUCCAAA

Columns and labels:
Conditions in all cases: with glucosamine-6-phosphate
glucosamine-6-phosphate [1] = variants of: B1; test: kcat; higher = faster cleavage; RNA array
How it was run: (§1)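 Glucosamine-6-phosphate, from 40 μM to 10 mM in HEPES/KCl/Mg(OAc)2 buffer, was flowed over sequenced MiSeq chips carrying barcoded ribozyme variants transcribed in situ by E. coli RNA polymerase. A hybridised Cy3 probe tracked the variants at 37 °C as tiles were imaged over ~14 h. kobs, kcat and KM were obtained by fitting normalised per-tile medians to exponential decays and then applying weighted Michaelis–Menten fits across concentrations.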

glucosamine-6-phosphate [2] = variants of: B1; test: KM; higher = weaker cofactor use; RNA array
How it was run: as §1

glucosamine-6-phosphate [3] = variants of: B1; test: self-cleavage kobs at 640 uM GlcN6P; higher = faster cleavage; RNA array
How it was run: as §1

glucosamine-6-phosphate [4] = variants of: B1; test: self-cleavage kobs at 2500 uM GlcN6P; higher = faster cleavage; RNA array
How it was run: as §1

glucosamine-6-phosphate [5] = variants of: B1; test: self-cleavage kobs at 10000 uM GlcN6P; higher = faster cleavage; RNA array
How it was run: as §1

glucosamine-6-phosphate [6] = variants of: B1; test: self-cleavage kobs at 160 uM GlcN6P; higher = faster cleavage; RNA array
How it was run: as §1

glucosamine-6-phosphate [7] = variants of: B1; test: self-cleavage kobs at 40 uM GlcN6P; higher = faster cleavage; RNA array
How it was run: as §1

Variant	kcat (glucosamine-6-phosphate [1]) [s⁻¹]	KM (glucosamine-6-phosphate [2]) [µM]	self-cleavage kobs at 640 uM GlcN6P (glucosamine-6-phosphate [3]) [s⁻¹]	self-cleavage kobs at 2500 uM GlcN6P (glucosamine-6-phosphate [4]) [s⁻¹]	self-cleavage kobs at 10000 uM GlcN6P (glucosamine-6-phosphate [5]) [s⁻¹]	self-cleavage kobs at 160 uM GlcN6P (glucosamine-6-phosphate [6]) [s⁻¹]	self-cleavage kobs at 40 uM GlcN6P (glucosamine-6-phosphate [7]) [s⁻¹]
A14U U45G C68U	0.000104 ± 5.1e-06	786 ± 160	4.96e-05 ± 1.7e-05	7.43e-05 ± 2.3e-05	9.78e-05 ± 1.7e-05	–	–
A15C C58A	0.000185 ± 2.6e-05	2130 ± 720	5.17e-05 ± 1.2e-05	8.54e-05 ± 1.6e-05	0.00016 ± 2.1e-05	–	–
A15G G29U C50G	3.72e-05 ± 6.3e-06	–	–	5.06e-05 ± 2.4e-05	–	–	–
A15C C70G C71A	4.1e-05 ± 1.4e-05	–	6.35e-05 ± 1.7e-05	–	–	4.75e-05 ± 2e-05	–
A15G U56A	0.00941 ± 0.0033	1700 ± 790	0.00267 ± 0.00031	0.00536 ± 0.0015	0.00825 ± 0.0011	0.000554 ± 9.9e-05	0.000313 ± 3.4e-05
A15G U46G	0.00908 ± 0.00054	2020 ± 170	0.00198 ± 0.00026	0.00538 ± 0.00091	0.00757 ± 0.00068	0.000667 ± 0.0001	0.000184 ± 2e-05
A15G U46A	0.00453 ± 0.00029	1890 ± 170	0.00114 ± 0.00035	0.00258 ± 0.00041	0.00382 ± 0.00063	0.0003 ± 9.6e-05	9.83e-05 ± 1.5e-05
A15C U65G	0.00172 ± 0.00056	4120 ± 1900	0.000252 ± 3.6e-05	0.000818 ± 0.00012	0.00111 ± 0.00017	4.69e-05 ± 1.1e-05	3.62e-05 ± 1.3e-05
A15G U65A C71A	0.000944 ± 0.0002	755 ± 320	0.000466 ± 5.6e-05	0.000535 ± 0.00018	0.000965 ± 0.00023	–	3.84e-05 ± 1.7e-05
A14U U30A	0.00136 ± 0.00037	2250 ± 960	0.000337 ± 5.2e-05	0.000564 ± 9.8e-05	0.00134 ± 0.00021	8.35e-05 ± 1.7e-05	3.62e-05 ± 1e-05
A15G A64U	0.000233 ± 2.7e-05	3870 ± 820	3.22e-05 ± 9e-06	9.11e-05 ± 1.2e-05	0.000169 ± 2.4e-05	–	–
A15G G32C	0.000278 ± 6.2e-05	8170 ± 3300	–	6.16e-05 ± 1.6e-05	0.000154 ± 2e-05	–	–
A15C C70A	6.11e-05 ± 1.2e-05	–	5.56e-05 ± 1.2e-05	9.56e-05 ± 1.5e-05	4.95e-05 ± 8.2e-06	3.37e-05 ± 1.6e-05	–
A15C A53C	0.00123 ± 0.00037	2900 ± 1400	0.000308 ± 6e-05	0.000472 ± 0.00011	0.00102 ± 0.00019	5.14e-05 ± 1.6e-05	2.74e-05 ± 1.3e-05
